The values that follow come from article PMC3158819 (Journal of molecular biology, 2011).

In assay [1] the target is T1, CASK CaMK domain (residues M1-A310) (human, UniProt O14936 1-310).
T1 sequence (looked up): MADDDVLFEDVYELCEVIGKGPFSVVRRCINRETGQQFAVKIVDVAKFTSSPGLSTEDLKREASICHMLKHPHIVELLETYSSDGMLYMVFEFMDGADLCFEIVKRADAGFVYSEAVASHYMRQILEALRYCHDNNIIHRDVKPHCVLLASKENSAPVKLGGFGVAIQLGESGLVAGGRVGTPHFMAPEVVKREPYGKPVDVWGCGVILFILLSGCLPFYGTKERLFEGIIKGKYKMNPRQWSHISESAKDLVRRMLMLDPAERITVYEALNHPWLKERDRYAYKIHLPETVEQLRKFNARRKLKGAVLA
Kind of assay: SPR.

Assay [2] addresses T1, CASK CaMK domain (residues M1-A310). Kind of assay: SEC. Background: In gel filtration, larger molecules generally elute earlier.

B1: Caskin1 CID (residues I375 to G471) (domain or fragment, UniProt Q8WXD9 375-471, looked up)
chain: IWVLRKPFAGGDRSGSISGMAGGRGSGGHALHAGSEGVKLLATVLSQKSVSESGPGDSPAKPPEGSAGVARSQPPVAHAGQVYGEQPPKKLEPASEG
Take B1: in assay [1], the Kd was 7.5 ± 0.5 µM.

B2: Caskin1 CID-SAMs (residues I375 to L605), wild type (domain or fragment)
chain: not shown
On to B2, for which the binding result in assay [2] was “binds”.

As usually defined, the Kd is the equilibrium constant for the complex coming apart.
